In patent CN118525034A (INTERVET INT BV, dated 2024):

B1: 65G9 (antibody, V domains shown)
VH: EFQLQQSGPELVKPGASVKISCKASGYSFTDYGMNWLKQINGKSLEWIAIINPNYGTASSNPKFKDKATLTVDHSSSTAYMQLSSLTSEDSAVYYCARAFDGYYFYWYFDVWGTGTTVTVSS
VL: SIVMTQTPKFLLVSAGDRVTITCKASQSVTNDVTWYQQKPGQSPKLLIFSASNRYTGVPDRFTGSGYGTDFTFTISTVQAEDLAVYFCQQDYSSPWTFGGGTKLEIK
B2: 209G5 (antibody, V domains shown)
VH: EVQLQQSVAELVRPGASVKLSCTASGFNIKNTYMHWVKERPEQGLEWIGRIDPANGNSKYAPKFQGKATITTDTSSNTAYLQLSSLTSEDTAIYYCARYYYVSSHFDVWGTGTTVTVSS
VL: DIKMTQSPSSMYASLGERVTITCKASQDINSYLNWFQQKPGKSPKTLIYRADRLVDGVPSRFSGSGSGQDYSLTISSLEYEDMGIYYCLQYDEFPLTFGDGTKLELN
B3: 85C10 (antibody, V domains shown)
VH: EFQLQQSGPELVKPGASVKISCKASGYSFTDYSINWVKQSNGKSLEWIGVINPNYGTSSHNQKFKGKATMTVDQSSSTAYMQLNSLTSEDSAVYYCARALDDYYFYWYFDVWGIGTTVTVSS
VL: DVVMTQTPLSLPVSLGDQASISCRSSQSLIHTNGNTYLHWYLQKPGQSPKLLIYKVSNRFSGVPDRFSGSGSGTDFTLKISRLEAEDLGVYFCSQSTHVPLTFGAGTKLELR
B4: 218D9 (antibody, V domains shown)
VH: QVTLKESGPGILQPSQTLSLTCSFSGFSLSTFGRGVGWIRQPSGKGLDWLTHIWWDDDKYYNPALKSRLTISKDTSKNQVFLKIANVDTADTATYYCARIAGGLRRAPYAMDSWGQGTSVTVSS
VL: DVVMTQTPLSLPVSLGDQASISCRSSQSLVHTNGNTYLHWYLQKPGQSPKLLIYKVSNRFSGVPDRFSGSGSGTDFTLKISRVEAEDLGVYFCSQTTHVPLTFGAGTKLELK
B5: 224G3 (antibody, V domains shown)
VH: EVQLVESGGDLVKPGGSLKLSCAASGFTFSSYGMSWVRQTPDKRLEWVATISNGGSYTYYPDSVKGRFTISRDNAKNTLYMQMSSLKSEDTAMYYCARNEPPDYWGQGTSVTVSS
VL: DIQMTQSPASLSVSVGETVTITCRASENIYSSLAWYQQKQGKSPQLLVYAATNLADGVPSRFSGSGSGTQYSLKINSLQSEDSGNYYCQHFRDTPPTFGGGTKLEIK
B6: 51F8 (antibody, V domains shown)
VH: EVQLQQSVAELVRPGASVKLSCTASGFNIKNTFIHWVKQRPEQGLEWIGRIDPANGNTKYAPKFQGRATLTADTSSNTAYLQLSSLTSEDTAIYYCARYYYVSSYFDVWGTGTTVTVSS
VL: SIVMTQTPKFLLVSAGDRVTITCKASQSVTNDVTWYQQKPGQSPKLLIYYASNRYTGVPDRFTGSGYGTDFTFTISTVQAEDLAVYFCQQDYSSPFTFGSGTKLEIK

Tests used:
[1] = target: 犬IL-31RA ECD-10His (犬 (canine)); assay: ELISA, IL-31RA ECD coated at 1 µg/mL, biotinylated canine IL-31 titrated, HRP-streptavidin
[2] = target: T1, 犬IL-31RA ECD-10His (犬 (canine)); assay: Octet BLI, biotinylated canine IL-31RA on SA biosensor, mAb 100-3.13 nM, 1:1 model
T1 chain: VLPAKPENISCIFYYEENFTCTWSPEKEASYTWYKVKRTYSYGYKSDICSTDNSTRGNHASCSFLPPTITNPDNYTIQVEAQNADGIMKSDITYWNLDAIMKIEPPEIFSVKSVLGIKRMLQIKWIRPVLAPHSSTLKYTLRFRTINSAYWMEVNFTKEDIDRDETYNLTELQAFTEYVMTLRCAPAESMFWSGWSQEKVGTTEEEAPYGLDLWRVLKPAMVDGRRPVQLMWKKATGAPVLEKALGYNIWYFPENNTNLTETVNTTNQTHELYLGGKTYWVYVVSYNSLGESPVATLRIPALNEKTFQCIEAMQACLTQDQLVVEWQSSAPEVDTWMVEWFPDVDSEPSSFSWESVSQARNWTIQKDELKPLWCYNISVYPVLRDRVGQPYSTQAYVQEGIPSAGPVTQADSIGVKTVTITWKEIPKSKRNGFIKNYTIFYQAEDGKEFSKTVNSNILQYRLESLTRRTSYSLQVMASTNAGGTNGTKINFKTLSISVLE

[3] = target: T1, 犬IL-31RA ECD-10His; assay: Octet BLI; upper end of the range, tied to 85C10 by Table 2
[4] = target: T1, 犬IL-31RA ECD-10His; assay: Octet BLI, biotinylated canine IL-31RA on SA biosensor
[5] = target: T1, 犬IL-31RA ECD-10His; assay: Octet BLI; lower end of the range, tied to 224G3 by Table 2

| Molecule | EC50 [1] [ng/mL] | Kd [2] [pM] | koff [2] [s⁻¹] | kon [2] [M⁻¹ s⁻¹] | Kd [3] [pM] | Kd [4] [pM] | Kd [5] [pM] |
| --- | --- | --- | --- | --- | --- | --- | --- |
| 犬IL-31 (ligand) | 0.55 | – | – | – | – | – | – |
| B1 | – | 451 | 0.000355 | 787000 | – | – | – |
| B2 | – | 131 | 4.87e-05 | 370000 | – | – | – |
| B3 | – | 851 | 0.000363 | 427000 | 850 | – | – |
| B4 | – | 69.8 | 4.63e-05 | 664000 | – | ~70 | – |
| B5 | – | 0.964 | 1.08e-06 | 1.12e+06 | – | – | 1 |
| B6 | – | 207 | 0.000141 | 684000 | – | ~200 | – |
